Several values for one entry are separate records, joined by “and”; a condition that tells them apart may be missing. Identical values can stand only once.
Target: LtMCC α6β6 dodecamer (L. tarentolae (endogenous in L. tarentolae TATII/UC cells))
Assay: filament lengths counted on cryoEM micrographs

stoichiometry N: 4 and 6
Substance: LtMCC α6β6 dodecamer (complex)
